Assays:
HeLa Kyoto [1] = experiment: solubility in G1/S (NP-40 vs SDS abundance) (log2 ratio); higher = more soluble; conditions: cell cycle stage: G1/S
HeLa Kyoto [2] = experiment: solubility change mitosis vs G1/S (difference of NP-40 vs SDS log2 ratios) (log2 ratio difference); higher = more soluble in mitosis
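For solubility change mitosis vs G1/S (difference of NP-40 vs SDS log2 ratios) in this document: synchronized HeLa Kyoto cells (double thymidine block for G1/S, nocodazole release for mitosis), protein amounts in NP-40 versus SDS lysates quantified by mass spectrometry, three biological replicates.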
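For solubility in G1/S (NP-40 vs SDS abundance) in this document: HeLa Kyoto cells arrested at G1/S by double thymidine block, proteins quantified by TMT10plex mass spectrometry in mild NP-40 versus SDS extracts, three biological replicates.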

| Sequence | solubility in G1/S (log2) (HeLa Kyoto [1]) | solubility change mitosis (log2) (HeLa Kyoto [2]) |
| --- | --- | --- |
| MNPQQQRMAAIGTDKELSDLLDFSAMFSPPVNSGKTRPTTLGSSQFSGSGIDERGGTTSWGTSGQPSPSYDSSRGFTDSPHYSDHLNDSRLGAHEGLSPTPFMNSNLMGKTSERGSFSLYSRDTGLPGCQSSLLRQDLGLGSPAQLSSSGKPGTAYYSFSATSSRRRPLHDSAALDPLQAKKVRKVPPGLPSSVYAPSPNSDDFNRESPSYPSPKPPTSMFASTFFMQDGTHNSSDLWSSSNGMSQPGFGGILGTSTSHMSQSSSYGNLHSHDRLSYPPHSVSPTDINTSLPPMSSFHRGSTSSSPYVAASHTPPINGSDSILGTRGNAAGSSQTGDALGKALASIYSPDHTSSSFPSNPSTPVGSPSPLTGTSQWPRPGGQAPSSPSYENSLHSLQSRMEDRLDRLDDAIHVLRNHAVGPSTSLPAGHSDIHSLLGPSHNAPIGSLNSNYGGSSLVASSRSASMVGTHREDSVSLNGNHSVLSSTVTTSSTDLNHKTQENYRGGLQSQSGTVVTTEIKTENKEKDENLHEPPSSDDMKSDDESSQKDIKVSSRGRTSSTNEDEDLNPEQKIEREKERRMANNARERLRVRDINEAFKELGRMCQLHLKSEKPQTKLLILHQAVAVILSLEQQVRERNLNPKAACLKRREEEKVSAVSAEPPTTLPGTHPGLSETTNPMGHM [TCF12] | 0.156 | -0.221 |
| MNRSRAIVQRGRVLPPPAPLDTTNLAGRRTLQGRAKMASVPVYCLCRLPYDVTRFMIECDMCQDWFHGSCVGVEEEKAADIDLYHCPNCEVLHGPSIMKKRRGSSKGHDTHKGKPVKTGSPTFVRELRSRTFDSSDEVILKPTGNQLTVEFLEENSFSVPILVLKKDGLGMTLPSPSFTVRDVEHYVGSDKEIDVIDVTRQADCKMKLGDFVKYYYSGKREKVLNVISLEFSDTRLSNLVETPKIVRKLSWVENLWPEECVFERPNVQKYCLMSVRDSYTDFHIDFGGTSVWYHVLKGEKIFYLIRPTNANLTLFECWSSSSNQNEMFFGDQVDKCYKCSVKQGQTLFIPTGWIHAVLTPVDCLAFGGNFLHSLNIEMQLKAYEIEKRLSTADLFRFPNFETICWYVGKHILDIFRGLRENRRHPASYLVHGGKALNLAFRAWTRKEALPDHEDEIPETVRTVQLIKDLAREIRLVEDIFQQNVGKTSNIFGLQRIFPAGSIPLTRPAHSTSVSMSRLSLPSKNGSKKKGLKPKELFKKAERKGKESSALGPAGQLSYNLMDTYSHQALKTGSFQKAKFNITGACLNDSDDDSPDLDLDGNESPLALLMSNGSTKRVKSLSKSRRTKIAKKVDKARLMAEQVMEDEFDLDSDDELQIDERLGKEKATLIIRPKFPRKLPRAKPCSDPNRVREPGEVEFDIEEDYTTDEDMVEGVEGKLGNGSGAGGILDLLKASRQVGGPDYAALTEAPASPSTQEAIQGMLCMANLQSSSSSPATSSLQAWWTGGQDRSSGSSSSGLGTVSNSPASQRTPGKRPIKRPAYWRTESEEEEENASLDEQDSLGACFKDAEYIYPSLESDDDDPALKSRPKKKKNSDDAPWSPKARVTPTLPKQDRPVREGTRVASIETGLAAAAAKLAQQELQKAQKKKYIKKKPLLKEVEQPRPQDSNLSLTVPAPTVAATPQLVTSSSPLPPPEPKQEALSGSLADHEYTARPNAFGMAQANRSTTPMAPGVFLTQRRPSVGSQSNQAGQGKRPKKGLATAKQRLGRILKIHRNGKLLL [PHF8] | -0.765 | 0.336 |
| MNSDQDVALKLAQERAEIVAKYDRGREGAEIEPWEDADYLVYKVTDRFGFLHEEELPDHNVAVERQKHLEIERTTKWLKMLKGWEKYKNTEKFHRRIYKGIPLQLRGEVWALLLEIPKMKEETRDLYSKLKHRARGCSPDIRQIDLDVNRTFRDHIMFRDRYGVKQQSLFHVLAAYSIYNTEVGYCQGMSQITALLLMYMNEEDAFWALVKLFSGPKHAMHGFFVQGFPKLLRFQEHHEKILNKFLSKLKQHLDSQEIYTSFYTMKWFFQCFLDRTPFTLNLRIWDIYIFEGERVLTAMSYTILKLHKKHLMKLSMEELVEFFQETLAKDFFFEDDFVIEQLQISMTELKRAKLDLPEPGKEDEYPKKPLGQLPPELQSWGVHHLSNGQRSVGRPSPLASGRRESGAPHRRHEHSPHPQSRTGTPERAQPPRRKSVEEESKKLKDEADFQRKLPSGPQDSSRQYNHAAANQNSNATSNIRKEFVPKWNKPSDVSATERTAKYTMEGKGRAAHPALAVTVPGPAEVRVSNVRPKMKALDAEDGKRGSTASQYDNVPGPELDSGASVEEALERAYSQSPRHALYPPSPRKHAEPSSSPSKVSNKFTFKVQPPSHARYPSQLDGEARGLAHPPSYSNPPVYHGNSPKHFPTANSSFASPQFSPGTQLNPSRRPHGSTLSVSASPEKSYSRPSPLVLPSSRIEVLPVDTGAGGYSGNSGSPKNGKLIIPPVDYLPDNRTWSEVSYTYRPETQGQSWTRDASRGNLPKYSAFQLAPFQDHGLPAVSVDSPVRYKASPAAEDASPSGYPYSGPPPPAYHYRNRDGLSIQESVLL [USP6NL] | -0.388 | -0.321 |
| MNSGRPETMENLPALYTIFQGEVAMVTDYGAFIKIPGCRKQGLVHRTHMSSCRVDKPSEIVDVGDKVWVKLIGREMKNDRIKVSLSMKVVNQGTGKDLDPNNVIIEQEERRRRSFQDYTGQKITLEAVLNTTCKKCGCKGHFAKDCFMQPGGTKYSLIPDEEEEKEEAKSAEFEKPDPTRNPSRKRKKEKKKKKHRDRKSSDSDSSDSESDTGKRARHTSKDSKAAKKKKKKKKHKKKHKE [ZCCHC17] | -1.32 | 0.661 |
| MNYVGQLAGQVFVTVKELYKGLNPATLSGCIDIIVIRQPNGNLQCSPFHVRFGKMGVLRSREKVVDIEINGESVDLHMKLGDNGEAFFVQETDNDQEVIPMHLATSPILSEGASRMECQLKRGSVDRMRGLDPSTPAQVIAPSETPSSSSVVKKRRKRRRKSQLDSLKRDDNMNTSEDEDMFPIEMSSDEAMELLESSRTLPNDIPPFQDDIPEENLSLAVIYPQSASYPNSDREWSPTPSPSGSRPSTPKSDSELVSKSTERTGQKNPEMLWLWGELPQAAKSSSPHKMKESSPLSSRKICDKSHFQAIHSESSDTFSDQSPTLVGGALLDQNKPQTEMQFVNEEDLETLGAAAPLLPMIEELKPPSASVVQTANKTDSPSRKRDKRSRHLGADGVYLDDLTDMDPEVAALYFPKNGDPSGLAKHASDNGARSANQSPQSVGSSGVDSGVESTSDGLRDLPSIAISLCGGLSDHREITKDAFLEQAVSYQQFVDNPAIIDDPNLVVKIGSKYYNWTTAAPLLLAMQAFQKPLPKATVESIMRDKMPKKGGRWWFSWRGRNTTIKEESKPEQCLAGKAHSTGEQPPQLSLATRVKHESSSSDEERAAAKPSNAGHLPLLPNVSYKKTLRLTSEQLKSLKLKNGPNDVVFSVTTQYQGTCRCEGTIYLWNWDDKVIISDIDGTITRSDTLGHILPTLGKDWTHQGIAKLYHKVSQNGYKFLYCSARAIGMADMTRGYLHWVNERGTVLPQGPLLLSPSSLFSALHREVIEKKPEKFKVQCLTDIKNLFFPNTEPFYAAFGNRPADVYSYKQVGVSLNRIFTVNPKGELVQEHAKTNISSYVRLCEVVDHVFPLLKRSHSSDFPCSDTFSNFTFWREPLPPFENQDIHSASA [LPIN1] | 0.0583 | -0.0904 |
| MPAIAVLAAAAAAWCFLQVESRHLDALAGGAGPNHGNFLDNDQWLSTVSQYDRDKYWNRFRDDDYFRNWNPNKPFDQALDPSKDPCLKVKCSPHKVCVTQDYQTALCVSRKHLLPRQKKGNVAQKHWVGPSNLVKCKPCPVAQSAMVCGSDGHSYTSKCKLEFHACSTGKSLATLCDGPCPCLPEPEPPKHKAERSACTDKELRNLASRLKDWFGALHEDANRVIKPTSSNTAQGRFDTSILPICKDSLGWMFNKLDMNYDLLLDPSEINAIYLDKYEPCIKPLFNSCDSFKDGKLSNNEWCYCFQKPGGLPCQNEMNRIQKLSKGKSLLGAFIPRCNEEGYYKATQCHGSTGQCWCVDKYGNELAGSRKQGAVSCEEEQETSGDFGSGGSVVLLDDLEYERELGPKDKEGKLRVHTRAVTEDDEDEDDDKEDEVGYIW [SPOCK1] | -0.59 | 0.345 |
| MPAPPCASCHAARAALRRPLSGQALCGACFCAAFEAEVLHTVLAGRLLPPGAVVAVGASGGKDSTVLAHVLRALAPRLGISLQLVAVDEGIGGYRDAALAAVRRQAARWELPLTVVAYEDLFGGWTMDAVARSTAGSGRSRSCCTFCGVLRRRALEEGARRVGATHIVTGHNADDMAETVLMNFLRGDAGRLARGGGLGSPGEGGALPRCRPLQFASQKEVVLYAHFRRLDYFSEECVYAPEAFRGHARDLLKRLEAARPSAVLDLVHSAERLALAPAARPPRPGACSRCGALASRALCQACALLDGLNRGRPRLAIGKGRRGLDEEATPGTPGDPARPPASKAVPTF [CTU1] | 0.107 | 0.0895 |
| MPGRHVSRVRALYKRVLQLHRVLPPDLKSLGDQYVKDEFRRHKTVGSDEAQRFLQEWEVYATALLQQANENRQNSTGKACFGTFLPEEKLNDFRDEQIGQLQELMQEATKPNRQFSISESMKPKF [SDHAF3] | 0.106 | 0.134 |
| MPKRSCPFADVAPLQLKVRVSQRELSRGVCAERYSQEVFEKTKRLLFLGAQAYLDHVWDEGCAVVHLPESPKPGPTGAPRAARGQMLIGPDGRLIRSLGQASEADPSGVASIACSSCVRAVDGKAVCGQCERALCGQCVRTCWGCGSVACTLCGLVDCSDMYEKVLCTSCAMFET [SIVA1] | -0.0737 | -0.098 |
| MPLGLKPTCSVCKTTSSSMWKKGAQGEILCHHCTGRGGAGSGGAGSGAAGGTGGSGGGGFGAATFASTSATPPQSNGGGGGKQSKQEIHRRSARLRNTKYKSAPAAEKKVSTKGKGRRHIFKLKNPIKAPESVSTIITAESIFYKGVYYQIGDVVSVIDEQDGKPYYAQIRGFIQDQYCEKSAALTWLIPTLSSPRDQFDPASYIIGPEEDLPRKMEYLEFVCHAPSEYFKSRSSPFPTVPTRPEKGYIWTHVGPTPAITIKESVANHL [GATAD1] | -0.0455 | 0.25 |
| MPLPEPSEQEGESVKAGQEPSPKPGTDVIPAAPRKPREFSKLVLLTASDQDEDGVGSKPQEVHCVLSLEMAGPATLASTLQILPVEEQGGVVQPALEMPEQKCSKLDAAAPQSLEFLRTPFGGRLLVLESFLYKQEKAVGDKVYWKCRQHAELGCRGRAITRGLRATVMRGHCHAPDEQGLEARRQREKLPSLALPEGLGEPQGPEGPGGRVEEPLEGVGPWQCPEEPEPTPGLVLSKPALEEEEAPRALSLLSLPPKKRSILGLGQARPLEFLRTCYGGSFLVHESFLYKREKAVGDKVYWTCRDHALHGCRSRAITQGQRVTVMRGHCHQPDMEGLEARRQQEKAVETLQAGQDGPGSQVDTLLRGVDSLLYRRGPGPLTLTRPRPRKRAKVEDQELPTQPEAPDEHQDMDADPGGPEFLKTPLGGSFLVYESFLYRREKAAGEKVYWTCRDQARMGCRSRAITQGRRVTVMRGHCHPPDLGGLEALRQREKRPNTAQRGSPGGPEFLKTPLGGSFLVYESFLYRREKAAGEKVYWTCRDQARMGCRSRAITQGRRVMVMRRHCHPPDLGGLEALRQREHFPNLAQWDSPDPLRPLEFLRTSLGGRFLVHESFLYRKEKAAGEKVYWMCRDQARLGCRSRAITQGHRIMVMRSHCHQPDLAGLEALRQRERLPTTAQQEDPEKIQVQLCFKTCSPESQQIYGDIKDVRLDGESQ [FLYWCH1] | -0.557 | 0.409 |

— the supplement of paper PMC5998384
